Assay results published in patent publication US20250313605A1.
*1 amine or outer side, *2 acyl side, *3 side chain or, on linkers, in order; H or OH if unused. Where no end group is shown, it is not given here. Side-chain parts run from the residue outwards. [ ]: non-standard residue; d: D form. The star is where a group is joined. C20 diacid = O=C(O)CCCCCCCCCCCCCCCCCCC(=O)*; γGlu = O=C(O)[C@H](CCC(=O)[*:2])N[*:1]; αMeL = CC(C)C[C@](C)(N)C(=O)O; αMeK = C[C@](N)(CCCCN)C(=O)O; AEEA = NCCOCCOCC(=O)O; Aib = CC(C)(N)C(=O)O

Legend:
[1] = target: T1, human GLP-1 receptor (human), P43220; test: radioligand competition SPA, HEK293 membranes
T1 chain: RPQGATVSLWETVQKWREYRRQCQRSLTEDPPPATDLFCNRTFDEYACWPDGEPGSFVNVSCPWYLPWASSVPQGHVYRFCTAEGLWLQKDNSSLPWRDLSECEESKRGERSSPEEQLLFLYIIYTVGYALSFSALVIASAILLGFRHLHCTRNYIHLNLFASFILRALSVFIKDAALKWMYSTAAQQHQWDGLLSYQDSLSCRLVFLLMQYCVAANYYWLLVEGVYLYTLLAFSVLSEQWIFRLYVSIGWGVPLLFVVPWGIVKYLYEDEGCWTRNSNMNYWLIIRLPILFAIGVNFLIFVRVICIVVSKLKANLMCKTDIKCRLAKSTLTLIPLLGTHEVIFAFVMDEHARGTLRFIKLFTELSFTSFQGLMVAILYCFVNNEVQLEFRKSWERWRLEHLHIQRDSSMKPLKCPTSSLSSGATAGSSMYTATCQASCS

[2] = target: human glucagon receptor (human), P47871; test: radioligand competition SPA, HEK293 membranes
[3] = target: T2, human GIP receptor (human), P48546; test: radioligand competition SPA, HEK293 membranes
T2 chain: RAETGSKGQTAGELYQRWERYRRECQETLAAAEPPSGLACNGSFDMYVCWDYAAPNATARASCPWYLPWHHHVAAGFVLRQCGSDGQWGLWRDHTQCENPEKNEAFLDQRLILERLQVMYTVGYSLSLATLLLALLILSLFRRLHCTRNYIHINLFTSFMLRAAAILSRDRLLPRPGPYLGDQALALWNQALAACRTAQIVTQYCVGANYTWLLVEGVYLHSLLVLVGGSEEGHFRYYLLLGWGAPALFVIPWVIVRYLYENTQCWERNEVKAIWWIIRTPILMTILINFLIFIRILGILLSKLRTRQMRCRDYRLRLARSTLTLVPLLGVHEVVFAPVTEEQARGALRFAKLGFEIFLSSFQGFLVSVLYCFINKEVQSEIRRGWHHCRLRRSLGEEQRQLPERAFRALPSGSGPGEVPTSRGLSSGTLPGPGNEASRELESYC

[4] = target: T1, human GLP-1 receptor (human), P43220; test: cell-based or functional assay
[5] = target: human glucagon receptor (human), P47871; test: cell-based or functional assay
[6] = target: T2, human GIP receptor (human), P48546; test: cell-based or functional assay

Chain of human glucagon receptor (human), P47871 (P47871 26-477): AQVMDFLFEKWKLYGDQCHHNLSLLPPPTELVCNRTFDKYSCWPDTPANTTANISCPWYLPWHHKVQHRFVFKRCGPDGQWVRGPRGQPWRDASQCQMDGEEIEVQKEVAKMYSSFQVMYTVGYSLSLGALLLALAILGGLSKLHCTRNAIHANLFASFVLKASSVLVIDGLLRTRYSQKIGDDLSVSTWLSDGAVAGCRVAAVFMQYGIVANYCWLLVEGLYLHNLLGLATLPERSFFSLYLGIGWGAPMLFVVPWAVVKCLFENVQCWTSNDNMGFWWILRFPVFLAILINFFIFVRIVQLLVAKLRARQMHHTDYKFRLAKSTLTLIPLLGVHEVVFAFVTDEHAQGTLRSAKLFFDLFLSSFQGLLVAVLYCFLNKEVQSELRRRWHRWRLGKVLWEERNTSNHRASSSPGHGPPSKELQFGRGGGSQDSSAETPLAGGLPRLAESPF

| Binder | Ki [1] | Ki [2] | Ki [3] | cAMP EC50 (0.1% casein) [4] | cAMP EC50 (FBS and BSA present) [4] | cAMP EC50 (0.1% casein) [5] | cAMP EC50 (FBS and BSA present) [5] | cAMP EC50 (0.1% casein) [6] | cAMP EC50 (FBS and BSA present) [6] |
| --- | --- | --- | --- | --- | --- | --- | --- | --- | --- |
| H-Y[Aib]QGTFTSDYSI[αMeL]LDKK([AEEA-AEEA-γGlu-C20 diacid])AQ[αMeK]AFIEYLLA[Aib]GPSSGAPPPS-NH2 (SMILES CC[C@H](C)[C@H](NC(=O)[C@H](Cc1ccccc1)NC(=O)[C@H](C)NC(=O)[C@](C)(CCCCN)NC(=O)[C@H](CCC(N)=O)NC(=O)[C@H](C)NC(=O)[C@H](CCCCNC(=O)COCCOCCNC(=O)COCCOCCNC(=O)CC[C@H](NC(=O)CCCCCCCCCCCCCCCCCCC(=O)O)C(=O)O)NC(=O)[C@H](CCCCN)NC(=O)[C@H](CC(=O)O)NC(=O)[C@H](CC(C)C)NC(=O)[C@](C)(CC(C)C)NC(=O)[C@@H](NC(=O)[C@H](CO)NC(=O)[C@H](Cc1ccc(O)cc1)NC(=O)[C@H](CC(=O)O)NC(=O)[C@H](CO)NC(=O)[C@@H](NC(=O)[C@H](Cc1ccccc1)NC(=O)[C@@H](NC(=O)CNC(=O)[C@H](CCC(N)=O)NC(=O)C(C)(C)NC(=O)[C@@H](N)Cc1ccc(O)cc1)[C@@H](C)O)[C@@H](C)O)[C@@H](C)CC)C(=O)N[C@@H](CCC(=O)O)C(=O)N[C@@H](Cc1ccc(O)cc1)C(=O)N[C@@H](CC(C)C)C(=O)N[C@@H](CC(C)C)C(=O)N[C@@H](C)C(=O)NC(C)(C)C(=O)NCC(=O)N1CCC[C@H]1C(=O)N[C@@H](CO)C(=O)N[C@@H](CO)C(=O)NCC(=O)N[C@@H](C)C(=O)N1CCC[C@H]1C(=O)N1CCC[C@H]1C(=O)N1CCC[C@H]1C(=O)N[C@@H](CO)C(N)=O) [Example 1] | 2.64 nM | 8.41 nM | 0.0469 nM | 0.153 nM | 7.49 nM | 0.114 nM | 2.54 nM | 0.0523 nM | 0.914 nM |
| Y[Aib]QGTFTSDYSI[αMeL]LDKK([AEEA-γGlu-C20 diacid])AQHAFIEYLLA[Aib]GPSSGAPPPS-NH2 (N-terminus assumed; SMILES CC[C@H](C)[C@H](NC(=O)[C@H](Cc1ccccc1)NC(=O)[C@H](C)NC(=O)[C@H](Cc1c[nH]cn1)NC(=O)[C@H](CCC(N)=O)NC(=O)[C@H](C)NC(=O)[C@H](CCCCNC(=O)COCCOCCNC(=O)CC[C@H](NC(=O)CCCCCCCCCCCCCCCCCCC(=O)O)C(=O)O)NC(=O)[C@H](CCCCN)NC(=O)[C@H](CC(=O)O)NC(=O)[C@H](CC(C)C)NC(=O)[C@](C)(CC(C)C)NC(=O)[C@@H](NC(=O)[C@H](CO)NC(=O)[C@H](Cc1ccc(O)cc1)NC(=O)[C@H](CC(=O)O)NC(=O)[C@H](CO)NC(=O)[C@@H](NC(=O)[C@H](Cc1ccccc1)NC(=O)[C@@H](NC(=O)CNC(=O)[C@H](CCC(N)=O)NC(=O)C(C)(C)NC(=O)[C@@H](N)Cc1ccc(O)cc1)[C@@H](C)O)[C@@H](C)O)[C@@H](C)CC)C(=O)N[C@@H](CCC(=O)O)C(=O)N[C@@H](Cc1ccc(O)cc1)C(=O)N[C@@H](CC(C)C)C(=O)N[C@@H](CC(C)C)C(=O)N[C@@H](C)C(=O)NC(C)(C)C(=O)NCC(=O)N1CCC[C@H]1C(=O)N[C@@H](CO)C(=O)N[C@@H](CO)C(=O)NCC(=O)N[C@@H](C)C(=O)N1CCC[C@H]1C(=O)N1CCC[C@H]1C(=O)N1CCC[C@H]1C(=O)N[C@@H](CO)C(N)=O) [Example 2] | 4.5 nM | 3.71 nM | 0.0665 nM | 0.207 nM | 12.8 nM | 0.0553 nM | 2.66 nM | 0.0474 nM | 2.19 nM |
